Measured values taken from PMC8006934 (2021).

Key:
Assay in all cases: SPR
[1] = molecular target: T1, FcγRIIa-H131, human, C-terminally biotinylated (human, UniProt P12318 34-217, biotin, C-terminal)
T1 chain: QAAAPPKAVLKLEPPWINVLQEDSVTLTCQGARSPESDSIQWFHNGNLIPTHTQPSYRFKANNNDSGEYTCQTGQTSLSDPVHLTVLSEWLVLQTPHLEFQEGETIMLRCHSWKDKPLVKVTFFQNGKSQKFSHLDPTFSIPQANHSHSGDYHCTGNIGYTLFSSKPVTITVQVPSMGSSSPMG

[2] = molecular target: FcγRIIIa-V158, human, C-terminally biotinylated (human, UniProt P08637 17-208, p.176Val (V158), biotin, C-terminal)
Sequence of FcγRIIIa-V158, human, C-terminally biotinylated (P08637 other isoform, or with tags, fused parts or gaps p.176Val (V158)): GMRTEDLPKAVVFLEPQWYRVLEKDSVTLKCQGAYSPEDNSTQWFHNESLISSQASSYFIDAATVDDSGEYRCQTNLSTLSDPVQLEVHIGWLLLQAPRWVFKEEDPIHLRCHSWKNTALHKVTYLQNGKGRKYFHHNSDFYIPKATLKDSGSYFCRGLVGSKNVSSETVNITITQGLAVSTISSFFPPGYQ

[3] = molecular target: T2, FcγRIa, human, C-terminally biotinylated (human, UniProt P12314 16-292, biotin, C-terminal)
T2 chain: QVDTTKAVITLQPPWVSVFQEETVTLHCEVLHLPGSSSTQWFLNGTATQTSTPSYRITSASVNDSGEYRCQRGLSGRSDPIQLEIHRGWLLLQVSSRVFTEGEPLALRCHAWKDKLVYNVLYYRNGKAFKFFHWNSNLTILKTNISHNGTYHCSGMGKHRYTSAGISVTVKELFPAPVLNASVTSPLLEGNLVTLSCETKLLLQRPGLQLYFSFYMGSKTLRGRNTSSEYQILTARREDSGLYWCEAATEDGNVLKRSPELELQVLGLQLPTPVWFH

[4] = molecular target: FcγRIIIa-F158, human, C-terminally biotinylated (human, UniProt P08637 17-208, biotin, C-terminal)
Sequence of FcγRIIIa-F158, human, C-terminally biotinylated (P08637 17-208): as the sequence (P08637 other isoform, or with tags, fused parts or gaps p.176Val (V158)) above, with V160F counted along it

[5] = molecular target: T3, FcγRIIa-R131, human, C-terminally biotinylated (human, biotin, C-terminal)
T3 chain: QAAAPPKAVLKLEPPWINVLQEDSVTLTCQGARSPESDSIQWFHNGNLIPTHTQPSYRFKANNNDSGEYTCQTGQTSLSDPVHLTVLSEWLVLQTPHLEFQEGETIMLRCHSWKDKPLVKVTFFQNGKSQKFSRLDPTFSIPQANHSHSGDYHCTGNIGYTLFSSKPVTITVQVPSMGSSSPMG

Kd [1]: 4.5 µM | Kd [2]: 4.4 µM | Kd [3]: 3.4 µM | Kd [4]: 4.9 µM | Kd [5]: 4.6 µM
B1: C-reactive protein (native CRP from human fluid) (natural protein)
chain: QTDMSRKAFVFPKESDTSYVSLKAPLTKPLKAFTVCLHFYTELSSTRGYSIFSYATKRQDNEILIFWSKDIGYSFTVGGSEILFEVPEVTVAPVHICTSWESASGIVEFWVDGKPRVRKSLKKGYTVGAEASIILGQEQDSFGGNFEGSQSLVGDIGNVNMWDFVLSPDEINTIYLGGPFSPNVLNWRALKYEVQGEVFTKPQLWP
